Test system: peptide library, one residue held at a place counted from the Y acceptor
Experiment: relative phosphorylation of the sub-library (ratio to the mean residue at this position); higher = residue favoured
How it was run: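 In 384-well plates, purified recombinant kinases were incubated for 90 min with 50 μM ATP containing γ-32P-ATP and biotinylated Tyr-centred peptide libraries, each mixture fixing one residue at a single position between −5 and +5. After capture on streptavidin membranes and rinsing, peptides were quantified by phosphorimaging with ImageQuant. Per-position intensities were scaled to the sum of the 18 (Ser/Thr-free library: 16) randomized residues, then multiplied by that number.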

EPHA1, construct: aa568-end, human, sequence (P21709 568-976, looked up): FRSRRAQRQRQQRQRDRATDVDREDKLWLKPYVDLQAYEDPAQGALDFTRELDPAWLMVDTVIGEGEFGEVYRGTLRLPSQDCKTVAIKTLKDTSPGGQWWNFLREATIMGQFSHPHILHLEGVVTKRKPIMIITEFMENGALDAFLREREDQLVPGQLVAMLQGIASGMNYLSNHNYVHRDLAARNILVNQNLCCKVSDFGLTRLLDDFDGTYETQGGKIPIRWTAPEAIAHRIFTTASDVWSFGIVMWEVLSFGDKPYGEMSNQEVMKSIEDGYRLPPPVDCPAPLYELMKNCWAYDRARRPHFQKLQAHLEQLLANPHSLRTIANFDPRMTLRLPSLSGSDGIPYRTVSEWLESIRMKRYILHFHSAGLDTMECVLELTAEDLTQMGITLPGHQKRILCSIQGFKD
AXL, construct: aa473-end, human, sequence (P30530 473-894, looked up): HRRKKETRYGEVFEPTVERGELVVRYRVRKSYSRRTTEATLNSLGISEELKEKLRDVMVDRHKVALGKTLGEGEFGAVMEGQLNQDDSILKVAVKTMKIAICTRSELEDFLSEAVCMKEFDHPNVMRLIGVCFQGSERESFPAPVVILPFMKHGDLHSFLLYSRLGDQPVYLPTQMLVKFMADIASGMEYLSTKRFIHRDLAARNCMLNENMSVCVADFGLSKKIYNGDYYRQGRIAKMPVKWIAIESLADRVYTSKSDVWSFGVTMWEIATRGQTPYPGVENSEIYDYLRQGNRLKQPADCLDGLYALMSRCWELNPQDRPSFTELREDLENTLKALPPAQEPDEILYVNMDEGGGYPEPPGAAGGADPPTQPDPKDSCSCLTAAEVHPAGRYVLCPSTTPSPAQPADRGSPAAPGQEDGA

AXL, construct: aa473-end, human (from UniProt P30530)
relative phosphorylation
Details | at +1 | at +2 | at +3 | at +4 | at +5 | at -1 | at -2 | at -3 | at -4 | at -5
A fixed | 1.58 | 0.759 | 0.52 | 0.973 | 0.953 | 0.707 | 0.976 | 0.87 | 1.16 | 0.962
D fixed | 0.68 | 0.48 | 0.401 | 0.874 | 1.06 | 0.354 | 0.754 | 0.897 | 0.884 | 0.822
E fixed | 1.19 | 0.946 | 0.327 | 1.07 | 1.01 | 0.34 | 0.896 | 1.15 | 1.1 | 0.813
F fixed | 1.12 | 1.43 | 1.61 | 1.03 | 0.877 | 1.51 | 0.6 | 0.911 | 0.948 | 0.965
G fixed | 0.671 | 0.33 | 0.527 | 1.41 | 1.81 | 0.306 | 1.39 | 1.25 | 1.36 | 1.36
H fixed | 1.1 | 0.976 | 1.05 | 1.33 | 0.794 | 1.77 | 1.1 | 1 | 0.905 | 1.08
I fixed | 1.42 | 1.31 | 2.32 | 0.763 | 0.446 | 2.51 | 0.913 | 0.722 | 0.915 | 0.969
K fixed | 0.356 | 0.723 | 0.289 | 0.849 | 0.911 | 0.718 | 1.21 | 1.09 | 1.15 | 1.11
L fixed | 0.971 | 1.33 | 2.33 | 0.84 | 0.548 | 2.03 | 0.762 | 0.792 | 0.986 | 0.913
M fixed | 1.09 | 1.13 | 1.55 | 1.02 | 0.69 | 1.05 | 0.639 | 0.84 | 0.891 | 0.977
N fixed | 0.352 | 0.811 | 0.456 | 0.806 | 1.25 | 1.1 | 1.16 | 1.29 | 0.905 | 1.02
P fixed | 0.183 | 0.751 | 0.892 | 1.29 | 2.23 | 0.518 | 1.1 | 1.25 | 1.09 | 1.18
Q fixed | 1.02 | 0.801 | 0.818 | 1.18 | 1.14 | 0.595 | 1.23 | 0.965 | 1.08 | 1.11
R fixed | 0.457 | 0.845 | 0.425 | 0.928 | 0.64 | 0.549 | 1.14 | 1.12 | 1.19 | 1.26
S fixed | 1.2 | 0.804 | 0.633 | 0.894 | 1.18 | 0.649 | 1.44 | 1.23 | 0.873 | 0.843
T fixed | 1.29 | 0.941 | 0.79 | 0.849 | 1.13 | 0.862 | 1.11 | 1.04 | 0.826 | 0.841
V fixed | 1.72 | 1.2 | 1.45 | 0.744 | 0.6 | 1.27 | 1.05 | 0.785 | 0.862 | 0.827
W fixed | 1.6 | 2.42 | 1.61 | 1.16 | 0.723 | 1.15 | 0.539 | 0.791 | 0.88 | 0.963
pThr fixed | 1.2 | 0.933 | 0.308 | 0.609 | 0.743 | 0.426 | 0.736 | 0.827 | 0.7 | 0.706
pTyr fixed | 1.74 | 2.15 | 0.402 | 0.659 | 0.818 | 1.08 | 0.692 | 1.06 | 0.883 | 0.7

EPHA1, construct: aa568-end, human (from UniProt P21709)
relative phosphorylation
Details | at +1 | at +2 | at +3 | at +4 | at +5 | at -1 | at -2 | at -3 | at -4 | at -5
A fixed | 1.63 | 0.704 | 0.7 | 0.747 | 1.08 | 0.615 | 1.22 | 0.904 | 1.25 | 1.1
D fixed | 0.645 | 0.963 | 0.21 | 0.562 | 0.699 | 0.705 | 0.891 | 1.06 | 0.864 | 0.752
E fixed | 1.87 | 1.03 | 0.191 | 0.665 | 0.616 | 0.52 | 1.04 | 1.18 | 1.11 | 0.59
F fixed | 0.853 | 1.68 | 1.4 | 1.27 | 1.17 | 1.37 | 0.531 | 1.16 | 0.936 | 1.1
G fixed | 0.729 | 0.307 | 0.486 | 1.21 | 1.21 | 0.23 | 1.38 | 1.07 | 1.47 | 1.26
H fixed | 0.604 | 0.912 | 0.877 | 1.38 | 0.987 | 0.87 | 1.03 | 1.18 | 0.919 | 0.917
I fixed | 1.41 | 0.997 | 2.57 | 0.732 | 0.92 | 2.74 | 0.716 | 0.784 | 0.853 | 0.941
K fixed | 0.292 | 0.642 | 0.319 | 0.931 | 1.12 | 0.381 | 1 | 0.801 | 0.993 | 1.12
L fixed | 1.15 | 1.18 | 2.29 | 0.816 | 0.955 | 2.38 | 0.789 | 0.803 | 1 | 1.07
M fixed | 1.88 | 1.21 | 1.5 | 1.26 | 0.966 | 1.11 | 0.633 | 0.926 | 0.948 | 0.968
N fixed | 0.276 | 1.17 | 0.385 | 0.726 | 0.773 | 1 | 1.11 | 1.16 | 0.852 | 0.937
P fixed | 0.157 | 0.521 | 1.26 | 1.19 | 1.57 | 0.445 | 1.29 | 0.929 | 1.13 | 1.17
Q fixed | 1.11 | 0.792 | 0.679 | 0.86 | 0.807 | 0.433 | 1.05 | 0.77 | 0.95 | 0.914
R fixed | 0.477 | 1.06 | 0.696 | 1.47 | 1.13 | 0.587 | 1.36 | 1.07 | 1.23 | 1.26
S fixed | 0.799 | 0.697 | 0.488 | 0.739 | 1 | 0.391 | 1.46 | 1.03 | 0.868 | 0.86
T fixed | 0.823 | 0.867 | 0.576 | 0.813 | 0.9 | 1.19 | 0.845 | 0.917 | 0.666 | 0.725
V fixed | 1.93 | 0.974 | 2.03 | 0.73 | 0.853 | 1.43 | 0.821 | 0.78 | 0.827 | 0.913
W fixed | 1.36 | 2.3 | 1.36 | 1.89 | 1.24 | 1.61 | 0.821 | 1.48 | 1.14 | 1.4
pThr fixed | 0.981 | 1.05 | 0.17 | 0.4 | 0.508 | 1.39 | 0.685 | 0.721 | 0.608 | 0.558
pTyr fixed | 1.87 | 2.54 | 0.57 | 0.629 | 0.727 | 0.904 | 0.81 | 0.888 | 0.88 | 0.684

Reference: the supplement of paper PMC11136658
